pIC50: −log10 of the molar value.
Assays:
Test in all cases: IEDB peptide-MHC binding, purified MHC/competitive/radioactivity; ≥ and ≤ were set here for values at or beyond the usual limits of such assays
HLA-A*02:03 = biological target: HLA-A*02:03
HLA-A*02:01 = biological target: HLA-A*02:01
HLA-A*68:02 = biological target: HLA-A*68:02
HLA-A*02:06 = biological target: HLA-A*02:06
HLA-A*02:02 = biological target: HLA-A*02:02
[1] = source organism: Vaccinia virus WR
[2] = source organism: Hepacivirus hominis
[3] = source organism: Mammarenavirus machupoense
[4] = source organism: Mammarenavirus lassaense

Sequence	pIC50 (HLA-A*02:03; [1])	pIC50 (HLA-A*02:01; [1])	pIC50 (HLA-A*68:02; [1])	pIC50 (HLA-A*02:06; [1])	pIC50 (HLA-A*02:02; [1])	further results
SLVSKHWEL	7.44	8.57	6.42	7.46	8.92	–
IAVITETIPI	7.49	7.28	6.81	9.00	6.29	–
QLFKYVPSA	8.11	8.15	5.79	6.46	7.92	–
QLMYDIINSV	9.85	9.11	6.78	8.25	8.72	–
SMYVIPDELI	6.94	6.42	5.76	6.31	7.51	–
ATICLKNEGV	7.15	6.62	7.06	7.38	6.36	–
MIHKTYIDV	7.82	5.72	6.57	6.90	5.85	–
LIQDWIPPL	–	–	–	–	–	pIC50 (HLA-A*02:03; [2]): 6.75; pIC50 (HLA-A*02:01; [2]): 7.01; pIC50 (HLA-A*68:02; [2]): 5.85; pIC50 (HLA-A*02:06; [2]): 7.27; pIC50 (HLA-A*02:02; [2]): 6.96
LIYDDNIDSI	7.59	6.18	6.70	6.67	6.92	–
VLWAHGFEL	–	–	–	–	–	pIC50 (HLA-A*02:03; source organism: SARS-CoV1): 7.47; pIC50 (HLA-A*02:01; source organism: SARS-CoV1): 9.40; pIC50 (HLA-A*68:02; source organism: SARS-CoV1): 5.41; pIC50 (HLA-A*02:06; source organism: SARS-CoV1): 7.70; pIC50 (HLA-A*02:02; source organism: SARS-CoV1): 8.62
FVDTMSIYI	6.43	8.02	6.33	7.80	7.68	–
YMSNLFDIPL	8.00	7.74	6.33	6.90	7.72	–
TISGNIYSA	7.72	6.68	7.96	6.75	7.07	–
SMGNTLTCYV	–	–	–	–	–	pIC50 (HLA-A*02:03; [2]): 7.41; pIC50 (HLA-A*02:01; [2]): 7.00; pIC50 (HLA-A*68:02; [2]): 5.61; pIC50 (HLA-A*02:06; [2]): 6.69; pIC50 (HLA-A*02:02; [2]): 7.36
KSFFWFNEV	–	–	–	–	–	pIC50 (HLA-A*02:03; [3]): 6.58; pIC50 (HLA-A*02:01; [3]): 8.19; pIC50 (HLA-A*68:02; [3]): 7.08; pIC50 (HLA-A*02:06; [3]): 8.49; pIC50 (HLA-A*02:02; [3]): 7.21
KVYLSTFNM	6.10	6.27	5.74	6.58	6.32	–
LVIGFLFLA	–	–	–	–	–	pIC50 (HLA-A*02:03; source organism: SARS-CoV1): 7.70; pIC50 (HLA-A*02:01; source organism: SARS-CoV1): 8.85; pIC50 (HLA-A*68:02; source organism: SARS-CoV1): 7.59; pIC50 (HLA-A*02:06; source organism: SARS-CoV1): 10.02; pIC50 (HLA-A*02:02; source organism: SARS-CoV1): 8.13
ATFRDMLLNV	9.40	8.08	6.29	8.52	8.15	–

Sequence	pIC50 (HLA-A*02:03; [1])	pIC50 (HLA-A*02:01; [1])	pIC50 (HLA-A*68:02; [1])	pIC50 (HLA-A*02:06; [1])	pIC50 (HLA-A*02:02; [1])	further results
MLSVVGFLV	–	–	–	–	–	pIC50 (HLA-A*02:03; source organism: SARS-CoV1): 8.46; pIC50 (HLA-A*02:01; source organism: SARS-CoV1): 8.11; pIC50 (HLA-A*68:02; source organism: SARS-CoV1): 7.04; pIC50 (HLA-A*02:06; source organism: SARS-CoV1): 6.94; pIC50 (HLA-A*02:02; source organism: SARS-CoV1): 9.00
AIAACAMLLV	–	–	–	–	–	pIC50 (HLA-A*02:03; source organism: SARS-CoV1): 7.49; pIC50 (HLA-A*02:01; source organism: SARS-CoV1): 7.44; pIC50 (HLA-A*68:02; source organism: SARS-CoV1): 5.84; pIC50 (HLA-A*02:06; source organism: SARS-CoV1): 7.11; pIC50 (HLA-A*02:02; source organism: SARS-CoV1): 8.23
GLMWLSYFV	–	–	–	–	–	pIC50 (HLA-A*02:03; source organism: SARS-CoV1): 9.09; pIC50 (HLA-A*02:01; source organism: SARS-CoV1): 9.15; pIC50 (HLA-A*68:02; source organism: SARS-CoV1): 7.36; pIC50 (HLA-A*02:06; source organism: SARS-CoV1): 9.01; pIC50 (HLA-A*02:02; source organism: SARS-CoV1): 9.70
SVIFYFISI	7.12	7.10	8.77	9.77	6.81	–
ATLNTLITLI	7.55	6.27	5.98	6.70	7.49	–
SIPISELSRL	7.21	5.65	6.37	7.11	6.60	–
LLALLSCISV	–	–	–	–	–	pIC50 (HLA-A*02:03; [2]): 8.89; pIC50 (HLA-A*02:01; [2]): 8.62; pIC50 (HLA-A*68:02; [2]): 5.61; pIC50 (HLA-A*02:06; [2]): 7.80; pIC50 (HLA-A*02:02; [2]): 9.11
AVANCVRNL	6.94	5.92	5.87	5.86	7.18	–
AVITETIPI	7.37	6.33	7.22	8.19	6.49	–
SIINHKFCNL	–	–	–	–	–	pIC50 (HLA-A*02:03; [4]): 6.25; pIC50 (HLA-A*02:01; [4]): 5.67; pIC50 (HLA-A*68:02; [4]): 6.04; pIC50 (HLA-A*02:06; [4]): 5.99; pIC50 (HLA-A*02:02; [4]): 6.61
LIDFYLCFL	–	–	–	–	–	pIC50 (HLA-A*02:03; source organism: SARS-CoV1): 7.21; pIC50 (HLA-A*02:01; source organism: SARS-CoV1): 9.05; pIC50 (HLA-A*68:02; source organism: SARS-CoV1): 7.03; pIC50 (HLA-A*02:06; source organism: SARS-CoV1): 7.96; pIC50 (HLA-A*02:02; source organism: SARS-CoV1): 8.08
NCLSLLLSV	–	–	–	–	–	pIC50 (HLA-A*02:03; [4]): 6.36; pIC50 (HLA-A*02:01; [4]): 7.14; pIC50 (HLA-A*68:02; [4]): 5.73; pIC50 (HLA-A*02:06; [4]): 6.20; pIC50 (HLA-A*02:02; [4]): 7.31
FTILEYLYIM	5.49	7.02	5.66	7.40	6.45	–
ILFILFFAYV	6.44	6.86	6.49	5.92	6.88	–
IAACAMLLV	–	–	–	–	–	pIC50 (HLA-A*02:03; source organism: SARS-CoV1): 6.41; pIC50 (HLA-A*02:01; source organism: SARS-CoV1): 6.25; pIC50 (HLA-A*68:02; source organism: SARS-CoV1): 6.41; pIC50 (HLA-A*02:06; source organism: SARS-CoV1): 6.88; pIC50 (HLA-A*02:02; source organism: SARS-CoV1): 6.49
IVSKCIVQSV	7.51	6.21	7.30	6.26	6.91	–
KASTISWMM	6.25	5.85	5.53	6.10	6.37	–

Reference: the Immune Epitope Database (IEDB)
